One test has as its target HLA-C*05:01. Kind of test: IEDB peptide-MHC binding, purified MHC/direct/fluorescence; filed as Kd, often an IC50 or EC50 that approximates it; ≥ and ≤ were set here for values at or beyond the usual limits of such assays.
Test [1] deals with HLA-A*01:01. Nature of the test: IEDB peptide-MHC binding, purified MHC/competitive/fluorescence; filed as Kd, often an IC50 or EC50 that approximates it; ≥ and ≤ were set here for values at or beyond the usual limits of such assays.
For test [2], the target named is HLA-B*58:01. Described as above. The settings on record: source organism: Escherichia coli APEC O1.
The target in test [3] is HLA-A*26:01. The test is described as above. The settings on record: source organism: Escherichia coli APEC O1.
The next test deals with HLA-C*08:02. Kind of test: IEDB peptide-MHC binding, purified MHC/direct/fluorescence; filed as Kd, often an IC50 or EC50 that approximates it; ≥ and ≤ were set here for values at or beyond the usual limits of such assays.
The target of test [4] is HLA-A*01:01. The test is described as above.
Test [5] has as its target HLA-B*15:01. Described as above.
The target in the next test is HLA-B*40:01. Described as above.
For test [6], the target named is HLA-B*58:01. The description is as above.
Test [7] has as its target HLA-A*26:01. The description is as above.
In another test the target is HLA-A*30:02. Kind of test: IEDB peptide-MHC binding, purified MHC/competitive/radioactivity; filed as Kd, often an IC50 or EC50 that approximates it; ≥ and ≤ were set here for values at or beyond the usual limits of such assays. As to conditions: source organism: SARS coronavirus Tor2.
The target of the next test is HLA-A*29:02. Described as above. As to conditions: source organism: SARS coronavirus Tor2.
For the next test, the target named is HLA-A*24:02. The description is as above. As to conditions: source organism: SARS coronavirus Tor2.
Another test concerns the target HLA-A*23:01. The test is described as above. The settings on record: source organism: SARS coronavirus Tor2.
The next test has as its target HLA-A*02:12. Kind of test: IEDB peptide-MHC binding, purified MHC/competitive/fluorescence; filed as Kd, often an IC50 or EC50 that approximates it; ≥ and ≤ were set here for values at or beyond the usual limits of such assays. As to conditions: source organism: Pasteurella multocida subsp. multocida str. Pm70.
The target of a further test is HLA-A*02:03. Described as above.
Test [8] has as its target HLA-A*02:11. Described as above. The settings on record: source organism: Pasteurella multocida subsp. multocida str. Pm70.
The next test addresses HLA-A*02:06. The description is as above.
A further test has as its target HLA-A*11:01. Nature of the test: IEDB peptide-MHC binding, purified MHC/direct/fluorescence; filed as Kd, often an IC50 or EC50 that approximates it; ≥ and ≤ were set here for values at or beyond the usual limits of such assays. The settings on record: source organism: Pasteurella multocida.
The target in another test is HLA-A*24:03. Described as above. As to conditions: source organism: Pasteurella multocida.
A further test deals with HLA-A*03:01. Described as above. The settings on record: source organism: Pasteurella multocida.
The target in a further test is HLA-B*27:05. The test is described as above. The settings on record: source organism: Pasteurella multocida.
Another test concerns the target HLA-A*02:01. Described as above. As to conditions: source organism: Pasteurella multocida.
The target in the next test is HLA-B*07:02. The test is described as above. As to conditions: source organism: Pasteurella multocida.
A further test has as its target HLA-A*31:01. The test is described as above. The settings on record: source organism: Pasteurella multocida.
Another test has as its target HLA-A*69:01. The description is as above. As to conditions: source organism: Pasteurella multocida.
The target in test [9] is HLA-B*08:01. Described as above. As to conditions: source organism: Pasteurella multocida.
In test [10] the target is HLA-B*08:01. Kind of test: IEDB peptide-MHC binding, purified MHC/competitive/fluorescence; filed as Kd, often an IC50 or EC50 that approximates it; ≥ and ≤ were set here for values at or beyond the usual limits of such assays. As to conditions: source organism: Yersinia pestis Nepal516.
In a further test the target is HLA-C*15:02. Nature of the test: IEDB peptide-MHC binding, purified MHC/direct/fluorescence; filed as Kd, often an IC50 or EC50 that approximates it; ≥ and ≤ were set here for values at or beyond the usual limits of such assays. The settings on record: source organism: Yersinia pestis Nepal516.
The target of another test is HLA-C*14:02. Described as above. The settings on record: source organism: Yersinia pestis Nepal516.
In another test the target is HLA-C*06:02. The description is as above. As to conditions: source organism: Yersinia pestis Nepal516.
The next test deals with HLA-C*03:03. Described as above. The settings on record: source organism: Yersinia pestis Nepal516.
In another test the target is HLA-A*26:02. Nature of the test: IEDB peptide-MHC binding, purified MHC/competitive/fluorescence; filed as Kd, often an IC50 or EC50 that approximates it; ≥ and ≤ were set here for values at or beyond the usual limits of such assays. As to conditions: source organism: Human immunodeficiency virus 1.
Another test addresses HLA-B*57:01. Described as above. The settings on record: source organism: Human immunodeficiency virus 1.
In another test the target is HLA-B*18:01. The test is described as above. The settings on record: source organism: Human immunodeficiency virus 1.
In test [11] the target is HLA-B*15:01. The description is as above. As to conditions: source organism: Human immunodeficiency virus 1.
For the next test, the target named is HLA-A*30:01. Described as above. The settings on record: source organism: Human immunodeficiency virus 1.
Another test has as its target HLA-B*15:17. The test is described as above. As to conditions: source organism: Human immunodeficiency virus 1.
A further test deals with HLA-B*15:09. Kind of test: IEDB peptide-MHC binding, purified MHC/direct/fluorescence; filed as Kd, often an IC50 or EC50 that approximates it; ≥ and ≤ were set here for values at or beyond the usual limits of such assays. As to conditions: source organism: Bacillus cereus NVH0597-99.
In a further test the target is HLA-B*39:01. The test is described as above. The settings on record: source organism: Bacillus cereus NVH0597-99.
Test [12] has as its target HLA-A*02:11. The description is as above. As to conditions: source organism: Bacillus cereus NVH0597-99.
Setting [13] is: source organism: Escherichia coli APEC O1.
Where [14] appears, read: source organism: Pasteurella multocida subsp. multocida str. Pm70.
[15] abbreviates: source organism: Pasteurella multocida.
Setting [16] is: source organism: Human immunodeficiency virus 1.

Broadly, the Kd is the constant that tells how readily two partners part at equilibrium.

The sequence FFNVEIPEF had a Kd with HLA-C*05:01 (source organism: human gammaherpesvirus 4) of no less than 20000 nM.

On to YTTDVNQLY, for which the Kd with HLA-A*01:01 [1] (setting [13]) was 5.1 nM; in the test with HLA-B*58:01 [2], 36 nM; in the test with HLA-A*26:01 [3], 16 nM; in the test with HLA-C*08:02 (setting [13]) it was 1010 nM.

As for FADINGKLY, the Kd with HLA-A*01:01 [4] (source organism: SARS-CoV1) is 191 nM; with HLA-B*15:01 [5] (source organism: SARS-CoV1) it was 3140 nM; with HLA-B*40:01 (source organism: SARS-CoV1), no less than 71300 nM; with HLA-C*08:02 (source organism: SARS-CoV1), no more than 1 nM; in the test with HLA-B*58:01 [6] (source organism: SARS-CoV1), 2250 nM; in the test with HLA-A*26:01 [7] (source organism: SARS-CoV1), 562 nM. Further, the dissociation constant (Kd) with HLA-A*30:02 is 1600 nM; with HLA-A*29:02, 17 nM; with HLA-A*24:02, no less than 77600 nM; in the test with HLA-A*23:01 it was no less than 77800 nM.

Take LMAEDLANV: the Kd with HLA-A*02:12 is no more than 0.1 nM; with HLA-A*02:03 (setting [14]) it was no more than 0.1 nM; in the test with HLA-A*02:11 [8], no more than 0.1 nM; in the test with HLA-A*02:06 (setting [14]), no more than 0.1 nM; in the test with HLA-A*01:01 [4] (setting [15]), no less than 20000 nM; in the test with HLA-A*11:01, no less than 20000 nM. The Kd is 11400 nM with HLA-A*24:03; 7690 nM with HLA-B*15:01 [5] (setting [15]); no less than 20000 nM with HLA-B*40:01 (setting [15]); no less than 20000 nM with HLA-A*03:01; no less than 20000 nM with HLA-B*27:05; no less than 20000 nM with HLA-B*58:01 [6] (setting [15]). The Kd with HLA-A*02:01 was 47.2 nM; in the test with HLA-B*07:02, no less than 20000 nM; with HLA-A*31:01, 2580 nM; with HLA-A*69:01 it was 16.8 nM; with HLA-B*08:01 [9], no less than 20000 nM; with HLA-A*26:01 [7] (setting [15]), no less than 20000 nM.

Consider YVIKKSSPL, for which the Kd in the test with HLA-B*08:01 [10] was 196 nM; with HLA-C*05:01 (source organism: Yersinia pestis Nepal516) it was no less than 20000 nM; with HLA-C*15:02, 3950 nM; in the test with HLA-C*14:02 it was 163 nM; with HLA-C*06:02, no less than 20000 nM; in the test with HLA-C*03:03, 2 nM.

On to RSLYNTIATLY, for which the Kd with HLA-A*26:02 worked out at 921 nM; with HLA-A*01:01 [1] (setting [16]), 1650 nM; with HLA-B*57:01, 128 nM; with HLA-B*18:01, 119 nM; with HLA-B*15:01 [11], 103 nM; with HLA-A*02:03 (setting [16]) it was 722 nM. Besides, the figures for the Kd with HLA-A*30:01, with HLA-A*02:06 (setting [16]) and in the test with HLA-B*15:17 were no less than 20000 nM, no less than 20000 nM and 0.7 nM, respectively.

In the case of YNDWEGNEL, the Kd was 3920 nM with HLA-B*15:09, 95 nM with HLA-C*05:01 (source organism: Bacillus anthracis str. A0193), 598 nM with HLA-B*39:01 and no less than 20000 nM with HLA-A*02:11 [12].
